The results in this text go back to patent publication US20220169722A1 (WUXI BIOLOGICS IRELAND, published 2022).

For test [1], the target named is T1, human LAG-3 on transfected cells (human, UniProt P18627 23-525).
T1 construct: whole, on cells; Flp-In-293 or CHO-K1 cells transfected with full length human LAG-3; also called cell surface human LAG-3
T1 sequence (looked up): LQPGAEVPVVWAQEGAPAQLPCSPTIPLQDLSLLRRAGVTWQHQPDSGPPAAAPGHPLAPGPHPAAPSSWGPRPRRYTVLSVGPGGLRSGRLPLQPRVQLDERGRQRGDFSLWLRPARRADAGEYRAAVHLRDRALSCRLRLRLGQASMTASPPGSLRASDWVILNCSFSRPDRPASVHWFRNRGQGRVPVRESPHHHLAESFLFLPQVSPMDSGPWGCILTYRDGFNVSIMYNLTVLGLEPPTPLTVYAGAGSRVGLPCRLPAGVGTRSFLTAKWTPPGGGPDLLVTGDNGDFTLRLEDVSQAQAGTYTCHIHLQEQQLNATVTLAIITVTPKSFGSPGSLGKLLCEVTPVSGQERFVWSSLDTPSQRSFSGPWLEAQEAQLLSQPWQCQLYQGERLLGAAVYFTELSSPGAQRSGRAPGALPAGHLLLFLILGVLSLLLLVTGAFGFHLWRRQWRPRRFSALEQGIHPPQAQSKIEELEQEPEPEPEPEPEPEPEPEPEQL
Kind of test: FACS affinity on transfected cells.

Test [2] concerns the target T2, mouse LAG-3 on transfected cells (mouse, UniProt Q61790 24-521).
T2 construct: whole, on cells; Flp-In-CHO cells transfected with mouse LAG-3; also called cell surface mouse LAG-3; murine LAG-3
T2 sequence (looked up): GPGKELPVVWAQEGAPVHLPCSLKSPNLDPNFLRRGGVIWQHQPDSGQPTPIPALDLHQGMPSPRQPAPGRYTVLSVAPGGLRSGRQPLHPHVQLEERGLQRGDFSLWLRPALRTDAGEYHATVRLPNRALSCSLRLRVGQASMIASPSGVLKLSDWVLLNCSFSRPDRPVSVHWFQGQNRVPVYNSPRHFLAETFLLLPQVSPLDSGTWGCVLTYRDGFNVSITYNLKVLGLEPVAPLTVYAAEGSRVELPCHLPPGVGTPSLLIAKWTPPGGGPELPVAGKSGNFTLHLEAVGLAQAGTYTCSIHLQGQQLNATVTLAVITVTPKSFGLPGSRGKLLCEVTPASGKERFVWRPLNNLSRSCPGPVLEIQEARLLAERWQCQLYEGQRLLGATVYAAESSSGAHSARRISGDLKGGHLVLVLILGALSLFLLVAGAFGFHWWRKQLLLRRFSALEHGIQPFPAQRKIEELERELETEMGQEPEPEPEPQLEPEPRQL
Kind of test: FACS affinity on transfected cells.

Test [3] has as its target T3, cynomolgus LAG-3 on transfected cells (cynomolgus monkey).
T3 construct: whole, on cells; 293F cells transfected with cynomolgus LAG-3; also called cell surface cynomolgus LAG-3; monkey LAG-3
Briefly: FACS affinity on transfected cells.

Test [4] has as its target T3, cynomolgus LAG-3 on transfected cells. Kind of test: FACS on cynomolgus LAG-3 transfected cells. The method, then: Similarly, cross-reactivity to cynomolgus or murine LAG-3 was tested by FACS with cyno or murine LAG-3 transfected cell lines.
The target of test [5] is T4, human LAG-3 protein (SPR analyte) (human, UniProt P18627 23-450).
T4 construct: extracellular domain
T4 sequence (looked up): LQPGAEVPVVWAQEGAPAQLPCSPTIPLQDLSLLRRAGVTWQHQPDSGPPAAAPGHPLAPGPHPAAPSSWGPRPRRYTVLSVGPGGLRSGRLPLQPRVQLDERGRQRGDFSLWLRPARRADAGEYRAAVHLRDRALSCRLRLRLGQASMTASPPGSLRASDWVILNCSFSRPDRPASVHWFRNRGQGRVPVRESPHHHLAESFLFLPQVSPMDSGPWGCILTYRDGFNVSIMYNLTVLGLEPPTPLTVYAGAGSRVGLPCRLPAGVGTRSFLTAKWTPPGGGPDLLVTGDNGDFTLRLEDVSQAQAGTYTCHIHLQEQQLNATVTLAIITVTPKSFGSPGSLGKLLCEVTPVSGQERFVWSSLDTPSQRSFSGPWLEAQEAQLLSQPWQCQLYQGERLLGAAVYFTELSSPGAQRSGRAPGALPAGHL
Briefly: SPR Biacore 8K, Ab captured on anti-human Fc, LAG-3 as analyte. A general note: In SPR one partner is held on a chip, and binding of the other changes the refractive index at the surface.

Test [6] addresses T5, mouse LAG-3 protein (SPR analyte) (mouse, UniProt Q61790 24-442).
T5 construct: extracellular domain
T5 sequence (looked up): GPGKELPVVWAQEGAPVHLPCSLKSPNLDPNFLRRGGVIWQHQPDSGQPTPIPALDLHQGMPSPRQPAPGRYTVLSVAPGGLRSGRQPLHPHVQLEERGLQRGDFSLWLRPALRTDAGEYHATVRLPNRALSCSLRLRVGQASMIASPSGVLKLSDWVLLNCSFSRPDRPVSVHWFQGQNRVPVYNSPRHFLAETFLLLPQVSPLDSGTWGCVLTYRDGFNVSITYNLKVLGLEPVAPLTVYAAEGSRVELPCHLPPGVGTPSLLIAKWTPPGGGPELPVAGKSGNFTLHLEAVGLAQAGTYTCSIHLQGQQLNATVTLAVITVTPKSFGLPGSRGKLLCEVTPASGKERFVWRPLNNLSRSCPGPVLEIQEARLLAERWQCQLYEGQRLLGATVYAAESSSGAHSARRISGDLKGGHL
The test is described as above.

A further test deals with human CD4 (human, UniProt P01730 26-390, limits assumed). Briefly: ELISA, plates coated with human CD4, goat anti-human IgG Fc-HRP. The method, then: Cross-reactivity to human CD4 was measured by ELISA. Plates were coated with human CD4 at 1 μg/ml overnight at 4° C. After blocking and washing, 1 μg/ml of LAG-3 antibodies were added to the plates and incubated at room temperature for 1 h. The plates were then washed and subsequently incubated with goat-anti human IgG Fc-HRP for 45 min. After washing, TMB substrate was added and the color reaction was stopped by 2M HCl. The absorbance at 450 nm was read using a microplate reader.
In general terms: An ELISA detects its analyte on a solid surface through an enzyme-linked reagent.

Test [7] concerns the target T1, human LAG-3 on transfected cells. Briefly: FACS on human LAG-3 transfected cells with serum-treated antibody, PE-labeled goat anti-human IgG. The method, then:
On indicated time points (day 0, day 1, day 4, day 7 and day 14), an aliquot of serum treated sample were removed from the incubator and snap frozen in liquid N2, and then stored at −80° C. until ready for test. All the samples were quickly thawed prior to the stability test. […] MFI of the cells was measured by a flow cytometry and analyzed by FlowJo.

B1: W3396-R2-1 (Fc fusion)
VHH: QVQLVESGGGVVQPGGSLRLSCAASGLTLSQYTMGWFRQAPGKERELVAAIHWTSSVTDYADSVYGRFTISRDDSKNTGYLQMNSLRAEDTAVYYCAATWYYTHRGSFDYWGQGTLVTVSS
In the case of B1, the values for the Bmax in test [1], in test [2] and in test [3] were 250 pM, 57 pM and 280 pM, respectively. The Kd was 810 pM in test [1]; 57 pM in test [2]; 3300 pM in test [3]; 162 pM in test [5]; less than 1.22 pM in test [6]. For the same molecule, the EC50 in test [4] was found to be 2340 pM. The koff is 2.7e-05 s⁻¹ in test [5] and less than 1e-06 s⁻¹ in test [6]. Further, the figures for the kon in test [5] and in test [6] were 166000 M⁻¹ s⁻¹ and 819000 M⁻¹ s⁻¹, respectively. Also, the binding result with human CD4 was “no binding (tested: 66.7 nM)”. In addition, the “EC50 (read off the curve)” value in test [7] was roughly 100 pM.

B2: W3396-R2-13 (Fc fusion)
VHH: QVQLVESGGGVVQPGGSLRLSCAASGLTLSQYTMGWFRQAPGKERELVAAIHWTSSVTDYADSVRGRFTISRDDSKNTGYLQMNSLRAEDTAVYYCAATWYYTHRGSFDYWGQGTLVTVSS
With B2, the values for the Bmax in test [1], in test [2] and in test [3] were 200 pM, 53 pM and 310 pM, respectively. For the same molecule, the Kd was 920 pM in test [1]; 54 pM in test [2]; 5000 pM in test [3]; 4060 pM in test [5]; less than 0.952 pM in test [6]. In test [4], this molecule showed an EC50 of 2160 pM. The koff in test [5] was 0.000197 s⁻¹; in test [6], less than 1e-06 s⁻¹. Moreover, the kon in test [5] amounted to 48400 M⁻¹ s⁻¹; in test [6], 1.05e+06 M⁻¹ s⁻¹. The binding result in the test with human CD4 is given as “no binding (tested: 66.7 nM)”. Moreover, the “EC50 (read off the curve)” value in test [7] was roughly 200 pM.

By Kd is commonly meant the equilibrium constant for the complex coming apart. Read a high Kd as lower affinity. In general, EC50 refers to the concentration at which the effect is half-maximal. Read a low EC50 as a more potent agent. For orientation: koff means a measure of how fast the partners let go of each other. Higher therefore signals fast dissociation. Usually kon stands for a measure of how fast the partners come together. By EC50 (read off the curve) is commonly meant the concentration that produces a half-maximal response. The low end stands for higher potency in that assay, the high end for lower potency in that assay.
